Blank lines part the entries; values can stand above or below the molecule they belong to.
Experiments:
[1] = tested on: IRE1α-mediated XBP-1 mRNA splicing; assay: XBP-1 mRNA level and splicing in J558 cells (Northern blot, RT-PCR); format: cell-based; settings: J558, Tm 4 hrs; MG-132 10 μM, PS-341 10 μM, ZL3VS 50 μM, AdaAhxL3VS 50 μM
Description: (A) XBP-1 mRNA levels in ER stressed J558 cells treated with Tm for 4 hrs in the absence or presence of MG-132. Cells were pretreated with MG-132 for 1 hr before adding Tm. XBP-1 mRNA levels were determined by Northern blot analysis. […] (C) Effect of a panel of PIs on XBP-1 splicing. Cells were treated with Tm for 4 hrs in the absence or presence of MG-132 (10 μM), PS-341 (10 μM), Lactacystin (10 μM), ZL3VS (50 μM) or AdaAhxL3VS (50 μM), and XBP-1 mRNA splicing measured by RT-PCR analysis. (D) IRE-1α phosphorylation in NIH3T3 cells were treated with Tm as indicated after 2 hrs of pretreatment with MG-132 (10 μM).
Total RNA was prepared by using Trizol reagent, electrophoresed on 1.2% agarose, 6% formaldehyde gels and then transferred onto Genescreen Plus membrane, (NEN, Boston, Mass.). […] Probes for ERdj4 and p58^IPK were generated from cDNA excised from EST clones (ATCC, Manassas, Va.) using appropriate restriction enzymes (ERdj4, IMAGE: 1920927; p58^IPK, IMAGE:2646147).

[2] = tested on: XBP-1 mRNA; assay: XBP-1 mRNA induction by cytokines in purified splenic B cells (Northern blot); format: cell-based, mouse; settings: 20 μg/ml cycloheximide added 30 min before IL-4, 4 hours
Description: (§1) Mouse splenocytes or purified B cells (purified mature B cells were isolated from spleen and lymph nodes by magnetic CD43 depletion or B220 magnetic bead selection, Miltenyi Biotech, Auburn Calif.) were plated at 1×10^6 cells/ml in complete media containing RPMI 1640 supplemented with 10% fetal calf serum (FBS)(Hyclone Laboratories), glutamine (2 mM), penicillin (50 units/ml), streptomycin (50 μg/ml), Hepes (100 mM), nonessential amino acids (1×) sodium pyruvate (1 mM) and β-ME (50 μM) and stimulated with anti-CD40(1 μg/ml)(Pharmigen) or LPS (20 μg/ml)(Sigma). Cytokines (R&D Systems, Minneapolis, Minn.) were used at IL-4 (20 ng/ml), IL-2 (20 ng/ml), Il-5 (20 ng/ml), IL-6 (20 ng/ml ), IL-10 (20 ng/ml ) and IL-13 (20 ng/ml). Stimulated B cells were split to a cell concentration of 1×10^6 cells/ml with fresh media every 24 h. The BCL1 (CWS13.20-3B3 ATCC CRL 1699) cell line was cultured in RPMI media supplemented with 10% FBS, gentamicin (20 μg/ml), and β-ME (50 μM). To induce differentiation cells were plated at 2×10^5 cells/ml and treated with recombinant mouse IL-2 and IL-5 (20 ng/ml) (R&D systems).
Total RNA was isolated using TriZo1 (Gibco-BRL) or Qiashedder/Rneasy RNA purification columns (Quiagen). Northern Blots were performed as described (Rengarajan et al., 2000 Immunity. 12:293-300). Briefly, 7-10 μg RNA were electrophoresed on 1.2% agarose, 6% formaldehyde gels transferred onto Genescreen membrane (NEN) and covalently bound to the membrane using UV Stratalinker (Stratagene). The following probes were used after ^32P-radiolabeling with the ReadyPrime labeling system (Amersham-Pharmacia): XBP-1 (15-830 of the murine coding region), GRP94 and GRP78 (both a kind gift of R. J. Kaufman Univ. of Michigan (Lee et al., 2002)), Blimp (Nco1-Sca1 fragment), c-myc cDNA and Il-6 cDNA . […]
Since XBP-1 is required for terminal B cell differentiation, it was important to identify the stimuli that regulate XBP-1 gene expression. A plethora of cytokines (IL-2, IL-4, IL-5, IL-6, IL-10, IL-13) has been implicated in plasma cell differentiation both in vitro and in vivo (reviewed in Calame, K. L. (2001 Nat. Inimunol. 2: 1103-1108; Liu, Y. J., and Banchereau, J. (1997). Sem Immunol 9: 235; Zubler, 1997Sem. Hematol 34:13). It was possible that these cytokines effected terminal B cell differentiation by modulating XBP-1 gene expression. Thus, the ability of these cytokines to upregulate XBP-1 mRNA transcripts in B cells was tested. Purified splenic B cells were cultured for 24 h in the presence or absence of various cytokines and XBP-1 expression determined by Northern blot analysis. […] XBP-1 mRNA levels were determined by Northern blot analysis with γ-actin as control. […] XBP-1 mRNA levels were determined as above. […]

[3] = target: XBP-1s (spliced form of murine XBP-1 protein, 371 aa) (mouse) (UniProt O35426); assay: cell-based or functional assay
[4] = tested on: BCL-1 cells; assay: IgM secretion by retrovirally transduced BCL-1 cells (ELISA); format: cell-based
Description: as §1
(§2) Assays to measure immunoglobulin or cytokine levels in culture supernatants were performed as described (e.g., Hodge et al., 1996 Immunity. 4:397-405 or Science. 1996 274:1903-5).
The XBP-1 cDNAs for the unspliced (XBP-1u/s) and the spliced (XBP-1s) forms were PCR-amplified from the total RNA of untreated and tunicamycin treated NIH3T3 cells, respectively, with a primer set (5′-[…]-3′ (SEQ ID NO: 7) and 5′-[…]-3′) (SEQ ID NO: 8). XBP-1u form was generated by a PCR-based mutagenesis from XBP-unspliced/s cDNA so that the two G residues at position 532 and 535 were changed to A without changing amino acid sequences in the XBP-1u open reading frame. Numbers are based on the sequences from gene bank database (NM_013842 [gi:13775155]). These XBP-1 cDNAs were inserted into the GFP-RV retroviral vector by using blunt end ligation (Sambrook et al., 1989). EFFECTENE transfection (Quiagen) was used to introduce the DNA into the Phoenix cell line as described by manufacturer (e.g., Reimold et al., 2001 Nature. 412:300-7 or Int Immunol. 2001 13:241-8). Viral supernatants were harvested after 48 hours and frozen at −80° C. for later use. B cells were purified from mouse spleens using CD43 depletion or positive selection with B220+ magnetic beads as described by the manufacturer (MidiMacs, Miltenyi Biotech). B cell purity was generally near 95% as confirmed by flow cytometry. The B cells (10^6 cells /ml) were then activated in culture with LPS 10 μg/ml and F (ab′)2 anti-IgM (5 μg/ml Southern Biotechnology Associates Inc.) for 24 hours. […]

[5] = tested on: XBP-1^−/− B cells; assay: Ig production by retrovirally transduced XBP-1-/- primary B cells (ELISA); format: cell-based, mouse; settings: LPS 10 μg/ml 72 h
Description: as §2
(§3) The XBP-1 cDNAs for the unspliced (XBP-1u/s) and the spliced (XBP-1s) forms were PCR-amplified from the total RNA of untreated and tunicamycin treated NIH3T3 cells, respectively, with a primer set (5′-[…]-3′ (SEQ ID NO: 7) and 5′-[…]-3′) (SEQ ID NO: 8). XBP-1u form was generated by a PCR-based mutagenesis from XBP-unspliced/s cDNA so that the two G residues at position 532 and 535 were changed to A without changing amino acid sequences in the XBP-1u open reading frame. Numbers are based on the sequences from gene bank database (NM_013842 [gi:13775155]). These XBP-1 cDNAs were inserted into the GFP-RV retroviral vector by using blunt end ligation (Sambrook et al., 1989). EFFECTENE transfection (Quiagen) was used to introduce the DNA into the Phoenix cell line as described by manufacturer (e.g., Reimold et al., 2001 Nature. 412:300-7 or Int Immunol. 2001 13:241-8). Viral supernatants were harvested after 48 hours and frozen at −80° C. for later use. B cells were purified from mouse spleens using CD43 depletion or positive selection with B220+ magnetic beads as described by the manufacturer (MidiMacs, Miltenyi Biotech). B cell purity was generally near 95% as confirmed by flow cytometry. The B cells (10^6 cells /ml) were then activated in culture with LPS 10 μg/ml and F (ab′)2 anti-IgM (5 μg/ml Southern Biotechnology Associates Inc.) for 24 hours. The 1 ml of activated B cells (10^6 cells/ml) were mixed with 4 μg of polybrene and 1 ml of virus-containing supernatant and spun at 1000 g for 45 minutes at 24° C. Cells were incubated for 24-36 h at 37° C. and then GFP+ cells were flow sorted and returned to culture with and without stimulation.
The effects of these three different forms of XBP-1 on Ig secretion were compared in wild type and XBP-1^−/− B cells. In vitro activated splenic B cells were transduced using retroviruses expressing bicistronic mRNA encoding XBP-1u/s, XBP-1s, XBP-1u or control GFP. In FIGS. 5(A) and (B) purified B cells from wt and XBP-1^−/− mice were activated in culture with LPS 10 μg/ml and F (ab′)2 anti-IgM (5 μg/ml) for 24 hours. Retroviral transduction with GFP alone (GFP-Rv), XBP-1u/s (XBP-1u/s GFP Rv), XBP-1s (XBP-1s GFP Rv) or XBP-1u (XBP-1u GFP Rv) of activated B cells was performed. Cells were incubated for 24-36 h at 37° C. and then GFP+ cells were flow sorted and then returned to culture with LPS stimulation (10 μg/ml) for 72 h. IgM panel(A) and IgG2b panel (B) production analyzed by ELISA from culture supernatants of stimulated B cells. Experiments were done at least three times and standard deviation is shown.

[6] = tested on: IL-6; assay: IL-6 production by retrovirally transduced wt and XBP-1-/- B cells (ELISA, Northern blot); format: cell-based, murine; settings: LPS 72 h
Description: as §2, §3
In human multiple myeloma cells, XBP-1 was induced by IL-6 treatment and implicated in the proliferation of malignant plasma cells (Wen et al., 1999). However, no role for IL-6 in upregulating XBP-1 transcripts or in mediating splicing of XBP-1 RNA in mature B cells has been described (FIG. 6A). The ability of XBP-1 to induce IL-6 production in wt and XBP-1^−/− primary B cells was tested. As described above, in vitro activated murine splenic B cells were transduced using retroviruses expressing bicistronic mRNA for XBP-1u/s, XBP-1s, XBP-1u and control GFP. After cell sorting, GFP^+ cells were stimulated with LPS and assayed for cytokine production after 72 h. In FIG. 6 panel (A) purified B cells from wt and XBP-1^−/− mice were activated in culture with LPS 10 μg/ml and F(ab′)2 anti-IgM (5 μg/ml ) for 24 hours. Retroviral transduction with GFP alone (GFP-Rv), XBP-1u/s (XBP-1 u/s GFP Rv), XBP-1s (XBP-1s GFP Rv) or XBP-1u (XBP-1u GFP Rv) of activated B cells was performed. Cells were incubated for 24-36 h at 37° C. and then GFP+ cells were flow sorted and then returned to culture with LPS stimulation (10 μg/ml) for 72 h. Cytokine production was analyzed by ELISA from culture supernatants of stimulated B cells. Experiments were done at least three times and standard deviation is shown. In panel (B) Total RNAs were prepared from stimulated B cells above and XBP-1 mRNA levels were determined by Northern blot analysis with γ-actin control

Molecule: CC(C)C[C@@H](/C=C/S(C)(=O)=O)NC(=O)[C@H](CC(C)C)NC(=O)[C@H](CC(C)C)NC(=O)CCCCCNC(=O)CCCCCNC(=O)CCCCCNC(=O)CC12CC3CC(CC(C3)C1)C2 [AdaAhx3L3VS]
effect on Tm-induced XBP-1 mRNA splicing [1]: suppressed XBP-1 mRNA splicing as efficiently as MG-132

Molecule: CC(C)C[C@@H](/C=C/S(C)(=O)=O)NC(=O)[C@H](CC(C)C)NC(=O)[C@H](CC(C)C)NC(=O)OCc1ccccc1 [ZL3VS]
effect on Tm-induced XBP-1 mRNA splicing [1]: suppressed XBP-1 mRNA splicing as efficiently as MG-132

Molecule: C[C@@H]1C[C@@H]([C@H](O)CC2CC(=O)NC(=O)C2)C(=O)[C@@H](C)C1 [cycloheximide, reference compound]
effect on IL-4-induced upregulation of XBP-1 mRNA [2]: did not affect the upregulation of XBP-1 mRNA in response to IL-4

fold induction of luciferase, XBP-luciferase reporter in NIH3T3 cells, 5 uM MG-132, with unspliced XBP-1 (fold induction) [3]: 5.8 | fold induction of luciferase, XBP-luciferase reporter in NIH3T3 cells, 5 uM MG-132, without unspliced XBP-1 (fold induction) [3]: 41.9
Molecule: XBP-1u (unspliced form of murine XBP-1 protein, 267 aa) (from UniProt O35426 1-267)

relative luciferase activity in NIH 3T3 cells (44.5 with 200 ng of spliced XBP-1 alone) (relative luciferase activity) [3]: 2.2
Molecule: XBP-N136 (N terminal 136 amino acids of the spliced form of XBP-1) (from UniProt O35426 1-136)

B1: XBP-1u/s: vector expressing XBP-1 mRNA giving the unspliced form and, upon IRE-dependent splicing, the spliced form (protein, UniProt O35426 1-267, looked up)
X-box-binding protein 1: MVVVAAAPSAATAAPKVLLLSGQPASGGRALPLMVPGPRAAGSEASGTPQARKRQRLTHLSPEEKALRRKLKNRVAAQTARDRKKARMSELEQQVVDLEEENHKLQLENQLLREKTHGLVVENQELRTRLGMDTLDPDEVPEVEAKGSGVRLVAGSAESAALRLCAPLQQVQAQLSPPQNIFPWTLTLLPLQILSLISFWAFWTSWTLSCFSNVLPQSLLVWRNSQRSTQKDLVPYQPPFLCQWGPHQPSWKPLMNSFVLTMYTPSL
modifications: GFP retroviral vector
notes: vector expressing XBP-1 mRNA giving the unspliced form and, upon IRE-dependent splicing, the spliced form
IgM secretion compared to vector alone controls ([4]; GFP positive BCL-1 cells treated with IL-2 and IL-5 for 3 days): approximately threefold | Ig secretion ([4]; GFP positive BCL-1 cells untreated with cytokine): neither XBP-1u/s nor XBP-1s forms were able to induce Ig secretion | secretion of IgM compared to control cells [5]: approximately ten-fold | IL-6 secretion over control [6]: approximately 2 fold

Reference: patent publication US20040170622A1, “Methods and compositions for modulating XBP-1 activity” (President and Fellows of Harvard College, priority 2002, published 2004)
